Measurements from article PMC8417293, “Impact of crowded environments on binding between protein and single-stranded DNA”.

Tests used:
Settings in all cases: protein: recombinant; single strand
[1] = biological target: T1, BsCspB (cold shock protein B) (UniProt P32081 1-67); assay: intrinsic Trp fluorescence quenching; dilute; 20 mM disodium phosphate pH 7.0, no added salt stated; fluorescence titration 298 K (0.5, 2.8 or 4 uM protein; table marks a/b not explained in the material); stopped-flow 288 K (60 or 300 nM protein); NMR 298 or 294.4 K with 5% D2O
T1 sequence (P32081 whole entry): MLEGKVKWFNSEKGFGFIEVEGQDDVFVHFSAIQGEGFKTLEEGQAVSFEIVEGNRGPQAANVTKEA

[2] = biological target: T1, BsCspB (cold shock protein B); assay: intrinsic Trp fluorescence quenching; 300 g/L PEG1; 20 mM disodium phosphate pH 7.0, no added salt stated; fluorescence titration 298 K (0.5, 2.8 or 4 uM protein; table marks a/b not explained in the material); stopped-flow 288 K (60 or 300 nM protein); NMR 298 or 294.4 K with 5% D2O
[3] = biological target: T1, BsCspB (cold shock protein B); assay: intrinsic Trp fluorescence quenching; 100 g/L PEG8; 20 mM disodium phosphate pH 7.0, no added salt stated; fluorescence titration 298 K (0.5, 2.8 or 4 uM protein; table marks a/b not explained in the material); stopped-flow 288 K (60 or 300 nM protein); NMR 298 or 294.4 K with 5% D2O
[4] = biological target: T1, BsCspB (cold shock protein B); assay: intrinsic Trp fluorescence quenching; 200 g/L PEG1; 20 mM disodium phosphate pH 7.0, no added salt stated; fluorescence titration 298 K (0.5, 2.8 or 4 uM protein; table marks a/b not explained in the material); stopped-flow 288 K (60 or 300 nM protein); NMR 298 or 294.4 K with 5% D2O
[5] = biological target: T1, BsCspB (cold shock protein B); assay: intrinsic Trp fluorescence quenching; 200 g/L PEG8; 20 mM disodium phosphate pH 7.0, no added salt stated; fluorescence titration 298 K (0.5, 2.8 or 4 uM protein; table marks a/b not explained in the material); stopped-flow 288 K (60 or 300 nM protein); NMR 298 or 294.4 K with 5% D2O
[6] = biological target: T1, BsCspB (cold shock protein B); assay: intrinsic Trp fluorescence quenching; dilute (series a); 20 mM disodium phosphate pH 7.0, no added salt stated; fluorescence titration 298 K (0.5, 2.8 or 4 uM protein; table marks a/b not explained in the material); stopped-flow 288 K (60 or 300 nM protein); NMR 298 or 294.4 K with 5% D2O
[7] = biological target: T1, BsCspB (cold shock protein B); assay: intrinsic Trp fluorescence quenching; 100 g/L PEG1 (series b); 20 mM disodium phosphate pH 7.0, no added salt stated; fluorescence titration 298 K (0.5, 2.8 or 4 uM protein; table marks a/b not explained in the material); stopped-flow 288 K (60 or 300 nM protein); NMR 298 or 294.4 K with 5% D2O
[8] = biological target: T1, BsCspB (cold shock protein B); assay: intrinsic Trp fluorescence quenching; 300 g/L PEG1 (series a); 20 mM disodium phosphate pH 7.0, no added salt stated; fluorescence titration 298 K (0.5, 2.8 or 4 uM protein; table marks a/b not explained in the material); stopped-flow 288 K (60 or 300 nM protein); NMR 298 or 294.4 K with 5% D2O
[9] = biological target: T1, BsCspB (cold shock protein B); assay: intrinsic Trp fluorescence quenching; 300 g/L Dex20 (series a); 20 mM disodium phosphate pH 7.0, no added salt stated; fluorescence titration 298 K (0.5, 2.8 or 4 uM protein; table marks a/b not explained in the material); stopped-flow 288 K (60 or 300 nM protein); NMR 298 or 294.4 K with 5% D2O
[10] = biological target: T1, BsCspB (cold shock protein B); assay: intrinsic Trp fluorescence quenching; 300 g/L Dex20 (series b); 20 mM disodium phosphate pH 7.0, no added salt stated; fluorescence titration 298 K (0.5, 2.8 or 4 uM protein; table marks a/b not explained in the material); stopped-flow 288 K (60 or 300 nM protein); NMR 298 or 294.4 K with 5% D2O
[11] = biological target: T1, BsCspB (cold shock protein B); assay: intrinsic Trp fluorescence quenching; 300 g/L glucose; 20 mM disodium phosphate pH 7.0, no added salt stated; fluorescence titration 298 K (0.5, 2.8 or 4 uM protein; table marks a/b not explained in the material); stopped-flow 288 K (60 or 300 nM protein); NMR 298 or 294.4 K with 5% D2O
[12] = biological target: T1, BsCspB (cold shock protein B); assay: intrinsic Trp fluorescence quenching; dilute (series b); 20 mM disodium phosphate pH 7.0, no added salt stated; fluorescence titration 298 K (0.5, 2.8 or 4 uM protein; table marks a/b not explained in the material); stopped-flow 288 K (60 or 300 nM protein); NMR 298 or 294.4 K with 5% D2O
[13] = biological target: T1, BsCspB (cold shock protein B); assay: intrinsic Trp fluorescence quenching; 300 g/L ethylene glycol; 20 mM disodium phosphate pH 7.0, no added salt stated; fluorescence titration 298 K (0.5, 2.8 or 4 uM protein; table marks a/b not explained in the material); stopped-flow 288 K (60 or 300 nM protein); NMR 298 or 294.4 K with 5% D2O
[14] = biological target: T1, BsCspB (cold shock protein B); assay: intrinsic Trp fluorescence quenching; 100 g/L Dex20 (series b); 20 mM disodium phosphate pH 7.0, no added salt stated; fluorescence titration 298 K (0.5, 2.8 or 4 uM protein; table marks a/b not explained in the material); stopped-flow 288 K (60 or 300 nM protein); NMR 298 or 294.4 K with 5% D2O
[15] = biological target: T1, BsCspB (cold shock protein B); assay: intrinsic Trp fluorescence quenching; 200 g/L Dex20 (series b); 20 mM disodium phosphate pH 7.0, no added salt stated; fluorescence titration 298 K (0.5, 2.8 or 4 uM protein; table marks a/b not explained in the material); stopped-flow 288 K (60 or 300 nM protein); NMR 298 or 294.4 K with 5% D2O

Binder	Kd [1]	Kd [2]	Kd [3]	Kd [4]	Kd [5]	Kd [6]	Kd [7]	Kd [8]	Kd [9]	Kd [10]	Kd [11]	Kd [12]	Kd [13]	Kd [14]	Kd [15]
TTTT (ssDNA) [dT4]	6100 ± 300 nM	17000 ± 1100 nM													
TTTTTTT (ssDNA) [dT7]	15 ± 5 nM	570 ± 30 nM	14 ± 7 nM	75 ± 15 nM	90 ± 20 nM	7 ± 3 nM	10 ± 10 nM	170 ± 5 nM	5 ± 3 nM	6 ± 3 nM					
TTTTT (ssDNA) [dT5]	750 ± 50 nM	3800 ± 100 nM								350 ± 50 nM	1310 ± 20 nM	780 ± 10 nM	5100 ± 400 nM	710 ± 20 nM	680 ± 20 nM
TTTTTT (ssDNA) [dT6]	80 ± 10 nM	580 ± 10 nM				30 ± 10 nM		415 ± 5 nM							
